Patent publication US20070265201A1, “INHIBITORS OF IN[…] TRA[…] FROM HCMV PROTEIN IE2” (priority 2005, published 2007)

Target: Spi-1 transcription factor, expressed in cells
Assay: cell-based or functional assay

## IE2 291-364 expressed in cells from pCDNA 3.1/V5-His IE2 291-364 (peptide)
  inhibition of IL-1β promoter luciferase reporter in LPS-treated RAW 264.7 cells: 50%
  maximum inhibition of the 3.8 kbp complete IL1B regulatory region luciferase reporter in LPS-treated RAW264.7 cells: 50 to 75%
